{"source": "paper PMC10244175", "about": "“Seeding the aggregation of TDP-43 requires post-fibrillization proteolytic cleavage” (Nature Neuroscience, 2023)", "molecular_target": "the molecule itself", "assay": "cryo-EM structure; fibrils of recombinant CP (279–360); helical reconstruction in RELION; two populations (one protofilament 4.1 Å, two protofilaments 3.7 Å); model built for G281-G351", "data": [{"protein": "TDP-43 (279–360) core peptide (domain or fragment, UniProt Q13148 279-360, looked up, TDP-43 residues 279-360 (82 amino acids), part of the C-terminal domain; printed theoretical mass 8041.7 Da; the atomic model PDB 7Q3U covers G281-G351; The fusion is written as His6-Sumo-TDP-43 (279–360) CP; the tag is removed by Ulp-1; also called CP; CP (279–360); source: E. coli ER2566, purified (Ni-NTA, Ulp-1 cleavage, reverse-phase HPLC C18), lyophilized; fibrils formed at 50 µM in …) NPGGFGNQGGFGNSRGGGAGLGNNQGSNMGGGMNFGAFSINPAMMAAAQAALQSSWGMMGMLASQQNQSGPSGNNQNQGNMQ", "values": [{"measurement": "binding result", "result": "binds"}]}]}
